Values quoted from earlier work, collected in article PMC11574045, “A cofactor-induced repressive type of transcription factor condensation can be induced by synthetic peptides to suppress tumorigenesis” (The EMBO Journal, 2024).

Molecular target: VGLL4 (Homo sapiens) (UniProt Q14135)
Settings: cited from earlier work

Chain of TEAD4 (Q15561 whole entry): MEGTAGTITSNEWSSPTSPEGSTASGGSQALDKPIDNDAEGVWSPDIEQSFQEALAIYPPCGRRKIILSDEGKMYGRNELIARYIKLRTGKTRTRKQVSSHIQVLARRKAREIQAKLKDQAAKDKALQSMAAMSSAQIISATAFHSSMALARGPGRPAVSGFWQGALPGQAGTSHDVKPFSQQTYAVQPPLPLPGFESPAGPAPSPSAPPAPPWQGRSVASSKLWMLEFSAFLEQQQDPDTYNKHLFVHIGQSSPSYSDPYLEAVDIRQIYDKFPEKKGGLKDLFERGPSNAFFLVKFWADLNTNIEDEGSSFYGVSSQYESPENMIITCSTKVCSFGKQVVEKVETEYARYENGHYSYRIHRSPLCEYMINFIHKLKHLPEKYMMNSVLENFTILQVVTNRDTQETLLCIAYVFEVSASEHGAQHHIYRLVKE
Chain of VGLL4 (Homo sapiens) (Q14135 whole entry): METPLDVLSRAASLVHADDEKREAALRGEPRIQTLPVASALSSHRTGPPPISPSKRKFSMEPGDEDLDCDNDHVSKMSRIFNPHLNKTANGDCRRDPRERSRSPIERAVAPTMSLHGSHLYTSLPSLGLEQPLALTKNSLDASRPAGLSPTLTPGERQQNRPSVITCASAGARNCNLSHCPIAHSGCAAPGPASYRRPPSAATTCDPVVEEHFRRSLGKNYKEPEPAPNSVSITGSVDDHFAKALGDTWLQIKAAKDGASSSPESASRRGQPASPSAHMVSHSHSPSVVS

Q: Which Kd does the source give for TEAD4 (from UniProt Q15561) here?
A: The Kd was 6.8 nM.
